# According to patent US20050278809A1 (HER MAJESTY THE QUEEN IN RIGHT OF CANADA AS REPRESENTED BY …, published 2005):
# T1: GST-Gcn5 fusion protein (recombinant Arabidopsis HAT Gcn5 fused to glutathione S-transferase) (Arabidopsis, UniProt Q9AR19 1-568)
# T1 construct: Expressed in E. coli from pGEX-6P-2 (SalI/NotI); also called GCN5 (HAT); histone acetyltransferase (HAT); not shown: glutathione S-transferase (GST) encoded by vector pGEX-6P-2 (Amersham Pharmacia)
# T1 sequence (looked up): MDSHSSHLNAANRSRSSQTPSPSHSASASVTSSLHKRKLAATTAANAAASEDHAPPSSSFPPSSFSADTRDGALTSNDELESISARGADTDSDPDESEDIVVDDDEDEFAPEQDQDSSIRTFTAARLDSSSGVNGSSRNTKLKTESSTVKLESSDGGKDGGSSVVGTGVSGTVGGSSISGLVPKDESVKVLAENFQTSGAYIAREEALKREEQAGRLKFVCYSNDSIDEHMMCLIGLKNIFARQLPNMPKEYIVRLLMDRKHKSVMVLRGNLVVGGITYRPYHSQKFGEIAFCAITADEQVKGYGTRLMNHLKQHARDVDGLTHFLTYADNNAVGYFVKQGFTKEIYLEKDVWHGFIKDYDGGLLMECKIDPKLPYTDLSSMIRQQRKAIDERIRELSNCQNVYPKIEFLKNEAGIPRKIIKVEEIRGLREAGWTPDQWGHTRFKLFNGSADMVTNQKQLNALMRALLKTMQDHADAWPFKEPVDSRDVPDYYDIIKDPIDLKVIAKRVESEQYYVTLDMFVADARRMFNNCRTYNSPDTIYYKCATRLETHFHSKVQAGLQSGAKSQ
# T2: GST-HDA19 fusion protein (recombinant Arabidopsis thaliana HDA19 fused to glutathione S-transferase) (Arabidopsis thaliana, UniProt O22446 1-501)
# T2 construct: Expressed in E. coli BL21-CodonPlus (DE3)-RP from pGEX-6P-2 (SalI/NotI) and purified under non-denaturing conditions; also called recombinant HDA19; not shown: glutathione S-transferase (GST) encoded by vector pGEX-6P-2 (Amersham Pharmacia)
# T2 sequence (looked up): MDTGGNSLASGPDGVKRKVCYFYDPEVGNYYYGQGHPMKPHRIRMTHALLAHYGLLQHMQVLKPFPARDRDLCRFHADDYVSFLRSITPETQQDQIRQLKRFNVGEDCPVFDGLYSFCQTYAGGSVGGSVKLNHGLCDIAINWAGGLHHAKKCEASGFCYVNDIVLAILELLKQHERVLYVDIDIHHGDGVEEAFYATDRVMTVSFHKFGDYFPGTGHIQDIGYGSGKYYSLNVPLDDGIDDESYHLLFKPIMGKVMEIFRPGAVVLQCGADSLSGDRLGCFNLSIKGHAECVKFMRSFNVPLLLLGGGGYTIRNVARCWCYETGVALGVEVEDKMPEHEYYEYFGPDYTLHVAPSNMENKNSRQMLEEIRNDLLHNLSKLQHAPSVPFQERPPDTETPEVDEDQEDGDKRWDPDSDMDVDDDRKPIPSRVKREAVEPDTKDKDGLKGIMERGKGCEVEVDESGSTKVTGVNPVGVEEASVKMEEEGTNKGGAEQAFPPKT
# B1: ΔbnKCP1^1-80 (residues 1-80), in vitro translated (other)
# chain: MAGGGPTFSIELSAYGSDLPTDKASGDIPNEEGSGLSRVGSGIWSGRTVDYSSESSSSIGTPGDSEEEDEESEEDNDEEE
# modifications: labeled with [^35S]methionine
# notes: C-terminal truncation lacking the KID domain, translated in vitro from pET-28b; Vector-encoded residues are not described
# B2: BnSCL1 (Brassica napus SCARECROW-like protein 1), full-length, in vitro translated (other, not shown: small tags and cut ends)
# chain: MDEHAMRSMDWDSIMKELEVDDDSAPYQLQPSSFNLPVFPDIDSSDVYPGPNQITGYGFNSLDSVDNGGFDYIEDLIRVVDCIESDELHLAHVVLSQLNQRLQTSAGRPLQRAAFYFKEALGSLLTGTNRNQLFSWSDIVQKIRAIKEFSGISPIPLFSHFTANQAILDSLSSQSSSPFVHVVDFEIGFGGQYASLMREIAEKSANGGFLRVTAVVAEDCAVETRLVKENLTQFAAEMKIRFQIEFVLMKTFEILSFKAIRFVDGERTVVLISPAIFRRVIGIAEFVNNLGRVSPNVVVFVDSEGCTETAGSGSFRREFVSAFEFYTMVLESLDAAAPPGDLVKKIVETFLLRPKISAAVETAANRRSAGQMTWREMLCAAGMRPVQLSQFADFQAECLLEKAQVRGFHVAKRQGELVLCWHGRALVATSAWRF
# modifications: labeled with [^35S]methionine
# notes: also called wild type BnSCL1
# B3: ΔBnSCL1^1-145, in vitro translated (other, not shown: small tags and cut ends)
# chain: MDEHAMRSMDWDSIMKELEVDDDSAPYQLQPSSFNLPVFPDIDSSDVYPGPNQITGYGFNSLDSVDNGGFDYIEDLIRVVDCIESDELHLAHVVLSQLNQRLQTSAGRPLQRAAFYFKEALGSLLTGTNRNQLFSWSDIVQKIRA
# modifications: labeled with [^35S]methionine
# notes: C-terminal truncation lacking the VHIID motif
# B4: ΔbnKCP1^1-160 (residues 1-160), in vitro translated (other)
# chain: MAGGGPTFSIELSAYGSDLPTDKASGDIPNEEGSGLSRVGSGIWSGRTVDYSSESSSSIGTPGDSEEEDEESEEDNDEEELGLASLRSLEDSLPSKGLSSHYKGKSKSFGNLGEIGSVKEVPKQENPLNKKRRLQIYNKLARKSFYSWQNPKSMPLLPVH
# modifications: labeled with [^35S]methionine
# notes: as for B1
# B5: bnKCP1 (B. napus KID-containing protein 1), full-length, in vitro translated (other)
# chain: MAGGGPTFSIELSAYGSDLPTDKASGDIPNEEGSGLSRVGSGIWSGRTVDYSSESSSSIGTPGDSEEEDEESEEDNDEEELGLASLRSLEDSLPSKGLSSHYKGKSKSFGNLGEIGSVKEVPKQENPLNKKRRLQIYNKLARKSFYSWQNPKSMPLLPVHEDNDDEEGDDGDLSDEERGGDVLARRPSFKNRALKSMSCFALSDLQEEEEEEEDE
# modifications: labeled with [^35S]methionine
# notes: Produced by TNT-Quick coupled in vitro transcription/translation from pET-28b (HindIII/XhoI); also called wild type bnKCP1; pET-28b bnKCP1
# Columns and labels:
# Assay in all cases: GST pulldown, [35S]Met-labelled in vitro translated protein
# [1] = target: T1, GST-Gcn5 fusion protein (recombinant …)
# [2] = target: T2, GST-HDA19 fusion protein (recombinant …)
# [3] = target: T3, GST alone (negative control) (UniProt P08515 1-218 = GST)
# T3 construct: Negative control in the GST pulldown assays (6 µg per reaction)
# T3 sequence (P08515 whole entry): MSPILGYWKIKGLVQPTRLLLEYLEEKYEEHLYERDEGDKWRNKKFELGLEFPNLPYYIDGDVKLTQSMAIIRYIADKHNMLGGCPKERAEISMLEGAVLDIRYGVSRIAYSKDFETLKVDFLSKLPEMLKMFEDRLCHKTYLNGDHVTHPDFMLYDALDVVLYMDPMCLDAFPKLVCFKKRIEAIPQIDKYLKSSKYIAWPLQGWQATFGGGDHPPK
Binder,binding result [1],binding result [2],binding result [3]
B1,no binding,no binding,–
B2,–,–,no binding
B3,–,no binding,–
B4,no binding,no binding,–
B5,–,–,no binding
